Experimental data as given in patent US20060241051A1 (Takeda / Millennium, published 2006).
Read-outs that look alike come from different tables or passages of the source. Square brackets hold non-standard residues; d marks the D form. Ends that are not written are not given here. * marks the point of attachment. Phe(3,4-Cl2) = N[C@@H](Cc1ccc(Cl)c(Cl)c1)C(=O)O; Propanoyl(3-(3-pyridyl)) = O=C(CCc1cccnc1)*; Phe(4-NH2) = Nc1ccc(C[C@H](N)C(=O)O)cc1; Arg(Me) = CNC(=N)NCCC[C@H](N)C(=O)O; Bta = N[C@@H](Cc1csc2ccccc12)C(=O)O; Fmoc = O=C(OCC1c2ccccc2-c2ccccc21)*; 4Pal = N[C@@H](Cc1ccncc1)C(=O)O; d4Pal = N[C@H](Cc1ccncc1)C(=O)O; Cha = N[C@@H](CC1CCCCC1)C(=O)O; Abu = CC[C@H](N)C(=O)O; azaGly = NNC(=O)O

B1: Compound No. 131: [Phe(4NH2)10]MS10 (peptide)
peptide: YNWNSFGLR[Phe(4-NH2)]-NH2
B2: Compound No. 303: [D-Tyr1,D-Asn2,Pya(4) 3,AzaGly7,Arg(Me)9]MS10 (peptide)
peptide: [dY][dN][4Pal]NSF[azaGly]L[Arg(Me)]F-NH2
B3: Compound No. 323: des(1-3)-4-Imidazoleacetyl-[AzaGly7,Arg(Me)9]MS10 (peptide)
peptide: {4‑Imidazoleacetyl}-NSF[azaGly]L[Arg(Me)]F-NH2
B4: Compound No. 144: des(1-3)-Fmoc-[Arg(Me)9]MS10 (peptide)
peptide: Fmoc-NSFGL[Arg(Me)]F-NH2
B5: Compound No. 187: [Abu8]MS10 (peptide)
peptide: YNWNSFG[Abu]RF-NH2
modifications: N-terminus assumed
SMILES: CC[C@H](NC(=O)CNC(=O)[C@H](Cc1ccccc1)NC(=O)[C@H](CO)NC(=O)[C@H](CC(N)=O)NC(=O)[C@H](Cc1c[nH]c2ccccc12)NC(=O)[C@H](CC(N)=O)NC(=O)[C@@H](N)Cc1ccc(O)cc1)C(=O)N[C@@H](CCCNC(=N)N)C(=O)N[C@@H](Cc1ccccc1)C(N)=O
B6: Compound No. 156: [Cha6]MS10 (peptide)
peptide: YNWNSXGLRF
modifications: Cha6; C-terminal amide
B7: Compound No. 171: [D-Tyr1,Cha3,Arg(Me)9]MS10 (peptide)
peptide: [dY]N[Cha]NSFGL[Arg(Me)]F-NH2
modifications: N-terminus assumed
SMILES: CNC(=N)NCCC[C@H](NC(=O)[C@H](CC(C)C)NC(=O)CNC(=O)[C@H](Cc1ccccc1)NC(=O)[C@H](CO)NC(=O)[C@H](CC(N)=O)NC(=O)[C@H](CC1CCCCC1)NC(=O)[C@H](CC(N)=O)NC(=O)[C@H](N)Cc1ccc(O)cc1)C(=O)N[C@@H](Cc1ccccc1)C(N)=O
B8: Compound No. 133: [Nal(1)10]MS10 (peptide)
peptide: YNWNSFGLRX
modifications: Nal(1)10; C-terminal amide
B9: Compound No. 322: des(1-3)-3-Pyridylpropionyl-[AzaGly7,Arg(Me)9]MS10 (peptide)
peptide: {Propanoyl(3-(3-pyridyl))}-NSF[azaGly]L[Arg(Me)]F-NH2
SMILES: CNC(=N)NCCC[C@H](NC(=O)[C@H](CC(C)C)NC(=O)NNC(=O)[C@H](Cc1ccccc1)NC(=O)[C@H](CO)NC(=O)[C@H](CC(N)=O)NC(=O)CCc1cccnc1)C(=O)N[C@@H](Cc1ccccc1)C(N)=O
notes: also called KiSS322; KiSS1-322
B10: Compound No. 199: [Phe(3,4Cl2)10]MS10 (peptide)
peptide: YNWNSFGLR[Phe(3,4-Cl2)]-NH2
B11: Compound No. 134: [Trp10]MS10 (peptide)
peptide: YNWNSFGLRW-NH2
B12: Compound No. 169: [D-Tyr1,Ala3,Arg(Me)9]MS10 (peptide)
peptide: [dY]NANSFGL[Arg(Me)]F-NH2
modifications: N-terminus assumed
SMILES: CNC(=N)NCCC[C@H](NC(=O)[C@H](CC(C)C)NC(=O)CNC(=O)[C@H](Cc1ccccc1)NC(=O)[C@H](CO)NC(=O)[C@H](CC(N)=O)NC(=O)[C@H](C)NC(=O)[C@H](CC(N)=O)NC(=O)[C@H](N)Cc1ccc(O)cc1)C(=O)N[C@@H](Cc1ccccc1)C(N)=O
B13: Compound No. 174: [D-Tyr1,Arg(Me)9,Trp10]MS10 (peptide)
peptide: [dY]NWNSFGL[Arg(Me)]W-NH2
modifications: N-terminus assumed
SMILES: CNC(=N)NCCC[C@H](NC(=O)[C@H](CC(C)C)NC(=O)CNC(=O)[C@H](Cc1ccccc1)NC(=O)[C@H](CO)NC(=O)[C@H](CC(N)=O)NC(=O)[C@H](Cc1c[nH]c2ccccc12)NC(=O)[C@H](CC(N)=O)NC(=O)[C@H](N)Cc1ccc(O)cc1)C(=O)N[C@@H](Cc1c[nH]c2ccccc12)C(N)=O
B14: Compound No. 170: [D-Tyr1,Ser3,Arg(Me)9]MS10 (peptide)
peptide: [dY]NSNSFGL[Arg(Me)]F-NH2
modifications: N-terminus assumed
SMILES: CNC(=N)NCCC[C@H](NC(=O)[C@H](CC(C)C)NC(=O)CNC(=O)[C@H](Cc1ccccc1)NC(=O)[C@H](CO)NC(=O)[C@H](CC(N)=O)NC(=O)[C@H](CO)NC(=O)[C@H](CC(N)=O)NC(=O)[C@H](N)Cc1ccc(O)cc1)C(=O)N[C@@H](Cc1ccccc1)C(N)=O
B15: Compound No. 141: [D-Tyr1,Arg(Me)9]MS10 (peptide)
peptide: [dY]NWNSFGL[Arg(Me)]F-NH2
B16: Compound No. 305: des(1)-[D-Tyr2,D-Pya(4) 3,AzaGly7,Arg(Me)9]MS10 (peptide)
peptide: [dY][d4Pal]NSF[azaGly]L[Arg(Me)]F-NH2
modifications: N-terminus assumed
SMILES: CNC(=N)NCCC[C@H](NC(=O)[C@H](CC(C)C)NC(=O)NNC(=O)[C@H](Cc1ccccc1)NC(=O)[C@H](CO)NC(=O)[C@H](CC(N)=O)NC(=O)[C@@H](Cc1ccncc1)NC(=O)[C@H](N)Cc1ccc(O)cc1)C(=O)N[C@@H](Cc1ccccc1)C(N)=O
notes: also called KiSS305; KiSS1-305
B17: Compound No. 151: [Nal(1)6]MS10 (peptide)
peptide: YNWNSXGLRF
modifications: Nal(1)6; C-terminal amide
B18: Compound No. 182: [D-Tyr1,Cha3,6,Arg(Me)9,Trp10]MS10 (peptide)
peptide: [dY]N[Cha]NS[Cha]GL[Arg(Me)]W-NH2
modifications: N-terminus assumed
SMILES: CNC(=N)NCCC[C@H](NC(=O)[C@H](CC(C)C)NC(=O)CNC(=O)[C@H](CC1CCCCC1)NC(=O)[C@H](CO)NC(=O)[C@H](CC(N)=O)NC(=O)[C@H](CC1CCCCC1)NC(=O)[C@H](CC(N)=O)NC(=O)[C@H](N)Cc1ccc(O)cc1)C(=O)N[C@@H](Cc1c[nH]c2ccccc12)C(N)=O
B19: Compound No. 190: [D-Tyr1,Cha3,AzaGly7,Arg(Me)9]MS10 (peptide)
peptide: [dY]N[Cha]NSF[azaGly]L[Arg(Me)]F-NH2
modifications: N-terminus assumed
SMILES: CNC(=N)NCCC[C@H](NC(=O)[C@H](CC(C)C)NC(=O)NNC(=O)[C@H](Cc1ccccc1)NC(=O)[C@H](CO)NC(=O)[C@H](CC(N)=O)NC(=O)[C@H](CC1CCCCC1)NC(=O)[C@H](CC(N)=O)NC(=O)[C@H](N)Cc1ccc(O)cc1)C(=O)N[C@@H](Cc1ccccc1)C(N)=O
B20: Compound No. 286: [D-Tyr1,Pya(4) 3,AzaGly7,Arg(Me)9]MS10 (peptide)
peptide: [dY]N[4Pal]NSF[azaGly]L[Arg(Me)]F-NH2
B21: Compound No. 189: [Ala(3-Bzt)10]MS10 (peptide)
peptide: YNWNSFGLR[Bta]-NH2
modifications: N-terminus assumed
SMILES: CC(C)C[C@H](NC(=O)CNC(=O)[C@H](Cc1ccccc1)NC(=O)[C@H](CO)NC(=O)[C@H](CC(N)=O)NC(=O)[C@H](Cc1c[nH]c2ccccc12)NC(=O)[C@H](CC(N)=O)NC(=O)[C@@H](N)Cc1ccc(O)cc1)C(=O)N[C@@H](CCCNC(=N)N)C(=O)N[C@@H](Cc1csc2ccccc12)C(N)=O
B22: Compound No. 152: [Nal(2)6]MS10 (peptide)
peptide: YNWNSXGLRF
modifications: Nal(2)6; C-terminal amide
B23: Compound No. 143: [D-Trp3,Arg(Me)9]MS10 (peptide)
peptide: YN[dW]NSFGL[Arg(Me)]F-NH2

Columns and labels:
[1] = target: human OT7T175 (metastin receptor) (human) (UniProt Q969F8); test: FMAT competition with Cy-5-labeled metastin (40-54), hOT7T175-expressed CHO cells
[2] = target: T1, human OT7T175 (metastin receptor) (human, UniProt Q969F8 1-398); test: cell-based or functional assay
[3] = target: T1, human OT7T175 (metastin receptor); test: FMAT competition with Cy-5-labeled metastin (40-54), hOT7T175-expressed CHO cells
[4] = target: T1, human OT7T175 (metastin receptor); test: cell-based or functional assay; remark: listed apart in the source
[5] = target: T1, human OT7T175 (metastin receptor); test: cell-based or functional assay; remark: listed apart in the source
[6] = target: T1, human OT7T175 (metastin receptor); test: cell-based or functional assay; remark: listed apart in the source

T1 sequence (Q969F8 whole entry L364H): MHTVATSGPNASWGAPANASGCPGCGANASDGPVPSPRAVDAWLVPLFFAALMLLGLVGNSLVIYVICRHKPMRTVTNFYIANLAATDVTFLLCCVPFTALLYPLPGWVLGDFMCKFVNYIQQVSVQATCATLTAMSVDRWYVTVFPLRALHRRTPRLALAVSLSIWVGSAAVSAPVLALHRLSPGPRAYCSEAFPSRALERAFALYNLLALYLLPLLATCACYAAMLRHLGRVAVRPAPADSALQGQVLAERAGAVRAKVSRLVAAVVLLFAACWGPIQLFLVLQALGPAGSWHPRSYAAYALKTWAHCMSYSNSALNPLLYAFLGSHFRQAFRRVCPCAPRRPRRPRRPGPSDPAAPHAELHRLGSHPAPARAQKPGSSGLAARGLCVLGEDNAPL
human OT7T175 (metastin receptor) (human), sequence (Q969F8 whole entry L364H): as above

Row | Molecule | intracellular Ca ion level-increasing activity (FLIPR) [2] | IC50 [3] | further results
1 | Compound No. 238: [D-Tyr1,D-Asn2,D-Trp3,AzaGly7,Arg(Me)9]MS10 (peptide) |  |  | IC50 [1]: 0.049 µM
2 | B1 | 3 specific activity to metastin (1-54) | 0.12 µM | 
3 | B2 |  | 0.0005 µM | intracellular Ca ion level-increasing activity (FLIPR) [4]: 5 specific activity to metastin (1-54); cell growth inhibition activity, IC50 [5]: 0.0412 µM
4 | B3 |  | 0.28 µM | intracellular Ca ion level-increasing activity (FLIPR) [4]: 1 specific activity to metastin (1-54)
5 | B4 | 1 specific activity to metastin (1-54) |  | 
6 | B5 | 1 specific activity to metastin (1-54) | 0.72 µM | 
7 | B6 | 2 specific activity to metastin (1-54) | 0.049 µM | 
8 | B7 | 10 specific activity to metastin (1-54) | 0.11 µM | 
9 | B8 | 3 specific activity to metastin (1-54) | 0.33 µM | 
10 | B9 |  | 0.054 µM | intracellular Ca ion level-increasing activity (FLIPR) [4]: 1 specific activity to metastin (1-54); cell growth inhibition activity, IC50 [5]: 0.0719 µM
11 | B10 | 3 specific activity to metastin (1-54) | 0.47 µM | 
12 | B11 | 30 specific activity to metastin (1-54) | 0.11 µM | 
13 | B12 | 2 specific activity to metastin (1-54) | 0.16 µM | 
14 | B13 | 10 specific activity to metastin (1-54) | 0.42 µM | 
15 | B14 | 1 specific activity to metastin (1-54) | 0.26 µM | 
16 | B15 |  |  | cell growth inhibition activity, IC50 [5]: 0.087 µM
17 | B16 |  | 0.0013 µM | intracellular Ca ion level-increasing activity (FLIPR) [4]: 5 specific activity to metastin (1-54); cell growth inhibition activity, IC50 [5]: 0.00894 µM
18 | B17 | 1 specific activity to metastin (1-54) | 0.3 µM | 
19 | B18 | 5 specific activity to metastin (1-54) | 0.098 µM | 
20 | B19 | 10 specific activity to metastin (1-54) | 0.012 µM | 
21 | B20 |  | 0.017 µM | intracellular Ca ion level-increasing activity (FLIPR) [6]: 2 specific activity to metastin (1-54); cell growth inhibition activity, IC50 [5]: 0.0183 µM
22 | B21 | 10 specific activity to metastin (1-54) | 0.23 µM | 
23 | B22 | 5 specific activity to metastin (1-54) | 0.18 µM | 
24 | B23 | 3 specific activity to metastin (1-54) | 0.0077 µM | 
